{"source": "paper doi:10.1101/2022.12.04.519021", "key": {"[1]": {"target": "C-terminally amidated amyloid-beta fragment Aβ1-24-NH2 (human)", "experiment": "high-resolution LC-MS"}, "[2]": {"target": "C-terminally amidated amyloid-beta fragment Aβ1-24-NH2 (human)", "experiment": "SDS-PAGE and immunoblot"}, "[3]": {"target": "C-terminally truncated amyloid-beta fragment Aβ1-25 (human)", "experiment": "SDS-PAGE and immunoblot"}, "[4]": {"target": "C-terminally truncated amyloid-beta fragment Aβ1-25 (human)", "experiment": "SDS-PAGE and immunoblot", "remark": "listed apart in the source"}, "[5]": {"target": "C-terminally truncated amyloid-beta fragment Aβ1-23 (human)", "experiment": "SDS-PAGE and immunoblot"}}, "note": "Several values for one entry are separate records, joined by “and”; a condition that tells them apart may be missing. Identical values can stand only once. Like-named read-outs stand apart in the source and are kept apart here."}
{"substance": "C-terminally amidated amyloid-beta fragment Aβ1-24-NH2 (peptide)", "values": [{"measurement": "stoichiometry N", "setting": "[1]", "result": "3 and 2 and 5"}, {"measurement": "stoichiometry N", "setting": "[2]", "result": "2 and 3"}]}
{"substance": "C-terminally truncated amyloid-beta fragment Aβ1-25 (peptide)", "values": [{"measurement": "stoichiometry N", "setting": "[3]", "result": 3}, {"measurement": "stoichiometry N", "setting": "[4]", "result": 2}]}
{"substance": "C-terminally truncated amyloid-beta fragment Aβ1-23 (peptide)", "values": [{"measurement": "stoichiometry N", "setting": "[5]", "result": "3 and 2"}]}
